The values below come from publication PMC7954794, “Protein context shapes the specificity of SH3 domain-mediated interactions in vivo” (Nature Communications, 2021).

B1: S. cerevisiae Abp1 (full length; SH3 domain 535-592 mutated) / Hua2 (parent)
chain 1: MALEPIDYTTHSREIDAEYLKIVRGSDPDTTWLIISPNAKKEYEPESTGSSFHDFLQLFDETKVQYGLARVSPPGSDVEKIIIIGWCPDSAPLKTRASFAANFAAVANNLFKGYHVQVTARDEDDLDENELLMKISNAAGARYSIQTSSKQQGKASTPPVKKSFTPSKSPAPVSKKEPVKTPSPAPAAKISSRVNDNNDDDDWNEPELKERDFDQAPLKPNQSSYKPIGKIDLQKVIAEEKAKEDPRLVQKPTAAGSKIDPSSDIANLKNESKLKRDSEFNSFLGTTKPPSMTESSLKNDDDKVIKGFRNEKSPAQLWAERKAKQNSGNAETKAEAPKPEVPEDEPEGEPDVKDLKSKFEGLAASEKEEEEMENKFAPPPKKSEPTIISPKPFSKPQEPVKAEEAEQPKTDYKKIGNPLPGMHIEADNEEEPEENDDDWDDDEDEAAQPPLPSRNVASGAPVQKEEPEQEEIAPSLPSRNSIPAPKQEEAPEQAPEEEIEEEAEEAAPQLPSRSSAAPPPPPRRATPEKKPKENPWATAEYDYDAAEDNELTFVENDKIINIEFVDDDWWLGELEKDGSKGLFPSNYVSLGN
chain 2: MQQTKFGKMYLDHDSVVEYSEDEIVEADRITLGYKKRLSMIENQMRHLLEDFSLDVQQIEPILADLQKYYDAFLQLLQKRNKSLQCKRSTHQPVPSPMNSQTSTNAKVNLSGKLMKFQLNSVQKFDEENILRILQNKIEFEHYFQIDKGKKQKVLLLAVYQCLNGPTRLHKVLNIEGIIHNNSIRTILGKQVSSSKWTVFLYDVKLVLLAHRQDVPNLETSKMIVRYGDLFPCALYFKDHTAY

The variants in one assay derive from B1. As to the kind of experiment: DHFR protein-fragment complementation in yeast (Abp1-DHFR F[1,2] x partner-DHFR F[3]), deep mutational scanning, second methotrexate selection vs reference. The note with it: with Hua2; S. cerevisiae, DHFR-PCA selection in liquid with methotrexate at 30 C, two 72 h selections (the score uses the second); reference = the pre-selection culture; not an affinity; value at the no-binding floor (a bound); scale: DMS score: mean over two replicates of log2(f_test/f_ref + 0.5)/ln 2, minus the synonymous-codon median.
As to chain 1 I560P, the screen value is less than -3.06.

Consider chain 1 V588N, for which the screen value was less than -3.06. Take chain 1 V588Y: the screen value was less than -3.06.

Take chain 1 V588P: the screen value is less than -3.06. For the variant chain 1 V588K, the screen value was -3.04.

As for chain 1 V588Q, the screen value was -3.02. The same measure, in the same setting: with chain 1 V588H the figure was less than -3.06. On the same count and under the same terms, with chain 1 V588R the figure was less than -3.06.

With chain 1 V588S, the screen value was less than -3.06. For chain 1 W570K, the screen value is less than -3.06. The same measure, in the same setting: with chain 1 W570I the figure was less than -3.06; with chain 1 W570V, -3.02. Regarding chain 1 W570H, the screen value is less than -3.06. Still for that read-out and setting: next, chain 1 W570E: -3.03; chain 1 W570D: less than -3.06. For the variant chain 1 W570T, the screen value is less than -3.06. With chain 1 W570A, the screen value is less than -3.06. chain 1 W570Q: the screen value is -3.01. On to chain 1 W570P, for which the screen value is less than -3.06. On to chain 1 W570M, for which the screen value was -3.02. The same measure, in the same setting: next, chain 1 L574W: -3.03. chain 1 L574D: the screen value is less than -3.06. The same measure, in the same setting: with chain 1 L574F the figure was -3.03.

Take chain 1 L574E: the screen value is less than -3.06. chain 1 V554P: the screen value was -3.04. Regarding chain 1 G572T, the screen value was -3.04. Turning to chain 1 G572K, the screen value is less than -3.06. Same read-out and setting: next, chain 1 G572M: less than -3.06; chain 1 G572Y: less than -3.06; chain 1 G572I: less than -3.06. For chain 1 G572H, the screen value is less than -3.06. Regarding chain 1 G572L, the screen value is -3.04.

As for chain 1 G572P, the screen value is less than -3.06. Take chain 1 G572S: the screen value is less than -3.06. Regarding chain 1 G572F, the screen value is less than -3.06.

Turning to chain 1 G572C, the screen value is less than -3.06.

chain 1 G572Q: the screen value was less than -3.06. As for chain 1 G572A, the screen value was -3.02.

As to chain 1 G572D, the screen value is less than -3.06. Take chain 1 G581T: the screen value was less than -3.06. Regarding chain 1 G581E, the screen value is -3.02. Take chain 1 G581L: the screen value was less than -3.06. For the variant chain 1 G581W, the screen value is less than -3.06. Consider chain 1 G581P, for which the screen value was less than -3.06. chain 1 G581Y: the screen value was less than -3.06. On to chain 1 G581N, for which the screen value was less than -3.06. Same read-out and setting: next, chain 1 G581Q: less than -3.06; chain 1 G581I: less than -3.06. chain 1 G581M: the screen value is less than -3.06.

Regarding chain 1 G581K, the screen value is -3.01. In the case of chain 1 G581H, the screen value is less than -3.06.

For the variant chain 1 G581F, the screen value is -3.01. Consider chain 1 Y541P, for which the screen value is less than -3.06. With chain 1 N561F, the screen value is less than -3.06. In the case of chain 1 N561L, the screen value is -3.02.

Regarding chain 1 N561W, the screen value is less than -3.06. For the variant chain 1 N561V, the screen value is -3.02. For the variant chain 1 N561P, the screen value was less than -3.06.

On to chain 1 Y587E, for which the screen value was -2.98. On the same count and under the same terms, with chain 1 Y587P the figure was less than -3.06.

As to chain 1 Y587G, the screen value was -3.

In the case of chain 1 F583W, the screen value was less than -3.06.

For chain 1 F583T, the screen value is less than -3.06. Same read-out and setting: next, chain 1 L551K: less than -3.06; chain 1 L551W: less than -3.06; chain 1 L551S: less than -3.06. Take chain 1 L551D: the screen value was less than -3.06. For chain 1 L551H, the screen value is -2.98.

For chain 1 L551G, the screen value is less than -3.06. On the same count and under the same terms, with chain 1 L551A the figure was -3.04; with chain 1 L551Y, less than -3.06.

Regarding chain 1 L590D, the screen value is less than -3.06.

Turning to chain 1 L590G, the screen value was -3.05. In the case of chain 1 L590N, the screen value is less than -3.06. For chain 1 W569H, the screen value was -3.05. With chain 1 W569P, the screen value is less than -3.06.

Turning to chain 1 W569I, the screen value was -2.99. On to chain 1 W569T, for which the screen value is less than -3.06. Consider chain 1 W569N, for which the screen value was less than -3.06.

For the variant chain 1 W569S, the screen value is -2.99.

In the case of chain 1 W569D, the screen value is -3.03. On to chain 1 W569A, for which the screen value was less than -3.06. With chain 1 I562K, the screen value was -3.03. Take chain 1 I562D: the screen value is less than -3.06.

chain 1 I562P: the screen value was less than -3.06.

As to chain 1 I562E, the screen value was less than -3.06. On to chain 1 I562Q, for which the screen value is less than -3.06.

For chain 1 I562H, the screen value was less than -3.06. On the same count and under the same terms, with chain 1 I562R the figure was less than -3.06; with chain 1 I562A, less than -3.06. On to chain 1 I562G, for which the screen value was -3.04. For chain 1 I562Y, the screen value is -3.03. Still for that read-out and setting: next, chain 1 I559Q: less than -3.06. On to chain 1 I559K, for which the screen value is less than -3.06.

For chain 1 I559C, the screen value was -3.01. Same read-out and setting: next, chain 1 I559P: less than -3.06; chain 1 I559R: -3.03; chain 1 I559G: -3.05. Same read-out and setting: with chain 1 I559D the figure was -3.04; with chain 1 I559H, less than -3.06; with chain 1 I559A, less than -3.06. With chain 1 I559W, the screen value is less than -3.06. For chain 1 I559E, the screen value is -3.

chain 1 K580P: the screen value was -2.98. With chain 1 L582A, the screen value was -3.04. Turning to chain 1 L582E, the screen value was -3.03. In the case of chain 1 L582D, the screen value is -2.99. For the variant chain 1 L582T, the screen value is -3.01. On to chain 1 L582G, for which the screen value is -3.

For the variant chain 1 Y543L, the screen value was -3.02.

Regarding chain 1 Y543A, the screen value was less than -3.06. Take chain 1 Y543G: the screen value is -3.04. As to chain 1 Y543V, the screen value is less than -3.06. On to chain 1 Y543P, for which the screen value is less than -3.06. Regarding chain 1 Y543M, the screen value is less than -3.06.

chain 1 Y543T: the screen value is -3.01.

For chain 1 Y543E, the screen value is less than -3.06. Take chain 1 Y543R: the screen value was -3.05. Same read-out and setting: next, chain 1 Y543I: less than -3.06. Still for that read-out and setting: next, chain 1 G578P: less than -3.06; chain 1 G578I: less than -3.06; chain 1 G578W: -3.01. On to chain 1 P584K, for which the screen value is less than -3.06. In the case of chain 1 P584W, the screen value was -3.02. Regarding chain 1 P584D, the screen value was less than -3.06. Consider chain 1 P584E, for which the screen value is less than -3.06.

As to chain 1 P584F, the screen value is -3. Consider chain 1 P584C, for which the screen value is -3.02.

As for chain 1 P584Q, the screen value was -3.01. For chain 1 P584G, the screen value is less than -3.06.

On to chain 1 P584M, for which the screen value is less than -3.06. For the variant chain 1 P584I, the screen value was less than -3.06. Consider chain 1 P584V, for which the screen value was less than -3.06. As to chain 1 S585L, the screen value is -2.99. Turning to chain 1 S585D, the screen value was -3.03. The same measure, in the same setting: next, chain 1 S585Y: less than -3.06; chain 1 S585F: -2.99.

As for chain 1 S585W, the screen value was -3.01. As for chain 1 T552L, the screen value is -3.04.

Consider chain 1 T552W, for which the screen value is less than -3.06.

The assay is the same for the next values; noted with them: with Hua2; S. cerevisiae, DHFR-PCA selection in liquid with methotrexate at 30 C, two 72 h selections (the score uses the second); reference = the pre-selection culture; value at the no-binding floor (a bound); scale: DMS score: mean over two replicates of log2(f_test/f_ref + 0.5)/ln 2, minus the synonymous-codon median.
As to chain 1 N586R, the screen value was -2.99.

Take chain 1 D566R: the screen value was -3.03. Turning to chain 1 D566S, the screen value was less than -3.06. In the case of chain 1 D566F, the screen value was -2.99. Consider chain 1 D566C, for which the screen value was less than -3.06.

Regarding chain 1 D567S, the screen value was -3.02. As to chain 1 D567K, the screen value was -3.03.

Consider chain 1 D567C, for which the screen value was less than -3.06. In the case of chain 1 D567P, the screen value was less than -3.06. On to chain 1 D567T, for which the screen value was -3.

For the variant chain 1 D567I, the screen value was less than -3.06. As for chain 1 D567R, the screen value was less than -3.06. Take chain 1 Y541R: the screen value is -3.01. Still for that read-out and setting: with chain 1 E547R the figure was -3.04; with chain 1 W569K, -3.02.

In the case of chain 1 W569M, the screen value is -2.99. Regarding chain 1 D568K, the screen value was less than -3.06. For chain 1 D568L, the screen value is less than -3.06. With chain 1 D568Q, the screen value was -3.01. Take chain 1 D568I: the screen value is less than -3.06. Consider chain 1 D568R, for which the screen value is less than -3.06. Regarding chain 1 D568M, the screen value is less than -3.06.

In the case of chain 1 S585Q, the screen value was less than -3.06.
